Measurements: article doi:10.1101/2020.03.23.004119 (bioRxiv, 2020)

Target: the molecule itself
Experiment: two-hybrid

B1: hPFKFB4 mammalian two-hybrid fusion (pBind-PFKFB4 and pAct-PFKFB4) (enzyme, human, UniProt Q16877 1-469, looked up)
chain: MASPRELTQNPLKKIWMPYSNGRPALHACQRGVCMTNCPTLIVMVGLPARGKTYISKKLTRYLNWIGVPTREFNVGQYRRDVVKTYKSFEFFLPDNEEGLKIRKQCALAALRDVRRFLSEEGGHVAVFDATNTTRERRATIFNFGEQNGYKTFFVESICVDPEVIAANIVQVKLGSPDYVNRDSDEATEDFMRRIECYENSYESLDEDLDRDLSYIKIMDVGQSYVVNRVADHIQSRIVYYLMNIHVTPRSIYLCRHGESELNLKGRIGGDPGLSPRGREFAKSLAQFISDQNIKDLKVWTSQMKRTIQTAEALGVPYEQWKVLNEIDAGVCEEMTYEEIQDNYPLEFALRDQDKYRYRYPKGESYEDLVQRLEPVIMELERQENVLVICHQAVMRCLLAYFLDKAAEQLPYLKCPLHTVLKLTPVAYGCKVESIFLNVAAVNTHRDRPQNVDISRPPEEALVTVPAHQ
- fold luciferase expression over the negative controls: 6 fold
